Laboratory results as given in US9150634B2, “Epitopes of the human PDGF receptor able to bind human auto-antibodies, antibodies and uses thereof” (priority 2010, dated 2015).

B1: Vlambda16F4: recombinant human monoclonal IgG1, VH PAM paired with Vlambda16F4 VL (SEQ ID No. 7) (antibody, V domains shown)
VH: GLVKPLETLSLTCSVSGGSVSDGSYFWNWIRQPPGKGLEWIGYAYSRGTTNYSPSLKGRITISVDKSKNQISLKLTSVTPADTAVYYCARDSFEIWGQGTMVTV
VL: QSALTQPASVSGSPGQSITISCTGTSSDVGGYNYVSWYQHHPGKAPKLMIYEVSHRPSGVSNRFSGSKSGNTASLTISGLQAEDEADYYCSSYTSSSHVVFGGGTKLTVL
B2: Vk13B8: recombinant human monoclonal IgG1, VH PAM (SEQ ID No. 3) paired with Vk13B8 VL (SEQ ID No. 4); non-agonistic anti-PDGFR alpha (antibody, listed as Homo sapiens, V domains shown)
VH: B1 VH
VL: DIQMTQSPSSLSASVGDRVTITCRASQGISNYLAWFQQKPGKAPKSLIYAASSLQSGVPSKFSGSGSGTDFTLTISSLQPEDFATYYCQQYNSFPYTFGQGTKLEIK

What was measured:
[1] = target: T1, PDGFR alpha (Homo sapiens, UniProt P16234); test: optical biosensor binding to immobilized His-tagged PDGFR alpha; design: cDNA encoding aminoacids 1-834 of human PDGFR alpha; made in house
Description: A detailed characterization of rHumaab interaction with human PDGFR alpha was performed on an optical biosensor, using as a molecular bait a homemade truncated conformer of this receptor containing the complete extracellular and transmembrane regions joined to a poly-histidine tail (HIS tag) replacing part of the intracellular domain, and serving both as an anchor to the biosensor surface and as a spacer. Preservation of proper folding of the immobilized receptor into a naïve-like conformation was verified by monitoring the interaction with its natural binding partner (PDGF-BB) and with two mouse monoclonal antibodies specific for conformational PDGFR alpha epitopes (FIG. 6a). Using this approach, both kinetics and equilibrium parameters of the interaction between PDGF-BB, each rHumaab and PDGFR alpha were determined. […] Additionally, the analysis of association and dissociation rate constants for soluble ligands binding to PDGFR alpha, further defined the mechanistic properties of the macromolecular recognition process. […]
cDNA encoding aminoacids 1-834 of human PDGFR alpha was inserted in the pcDNA V5 HIS A vector (Invitrogen), in order to fuse the COOH— terminal of the protein with a 6× histidine tag. […] Presence of a single His-tagged PDGFR alpha product in eluted fractions was evaluated by immunoblotting with specific anti-PDGFR alpha (R&D Biosystems) and anti-histidine (Sigma-Aldrich) monoclonal antibodies. […]
[…] For binding assays, monophasic time courses were always reported upon addition of soluble rHumaab (the validity of the monophasic model in fitting each time course was assessed according to a standard F-test procedure, with the biphasic model being statistically nonsignificant at 95% confidence) (Bevington P R and Robinson D K. McGraw-Hill Book Company, New York. 1992).
Target sequence in this assay (P16234 24-834): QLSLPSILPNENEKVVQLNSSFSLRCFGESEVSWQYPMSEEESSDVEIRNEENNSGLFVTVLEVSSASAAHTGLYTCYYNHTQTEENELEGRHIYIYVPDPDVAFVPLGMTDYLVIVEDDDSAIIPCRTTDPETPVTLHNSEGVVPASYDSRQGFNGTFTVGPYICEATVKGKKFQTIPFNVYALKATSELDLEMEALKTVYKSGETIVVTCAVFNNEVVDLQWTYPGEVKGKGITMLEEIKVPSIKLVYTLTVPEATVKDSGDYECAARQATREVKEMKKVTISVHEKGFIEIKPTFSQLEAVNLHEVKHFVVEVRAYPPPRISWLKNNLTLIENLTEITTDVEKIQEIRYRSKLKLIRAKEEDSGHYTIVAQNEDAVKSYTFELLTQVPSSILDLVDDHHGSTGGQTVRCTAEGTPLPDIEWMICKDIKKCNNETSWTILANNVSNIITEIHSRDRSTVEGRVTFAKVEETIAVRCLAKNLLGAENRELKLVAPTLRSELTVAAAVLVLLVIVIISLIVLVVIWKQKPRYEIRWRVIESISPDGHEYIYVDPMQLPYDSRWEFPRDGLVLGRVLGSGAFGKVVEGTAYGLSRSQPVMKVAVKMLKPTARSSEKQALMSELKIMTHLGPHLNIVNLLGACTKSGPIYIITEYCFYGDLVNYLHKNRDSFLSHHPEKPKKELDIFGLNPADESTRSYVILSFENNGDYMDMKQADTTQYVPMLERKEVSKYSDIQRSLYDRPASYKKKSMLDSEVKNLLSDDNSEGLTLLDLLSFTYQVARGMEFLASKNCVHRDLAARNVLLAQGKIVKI

[2] = system: normal human fibroblasts; test: type I collagen gene transcription in normal human fibroblasts (real-time PCR); format: cell-based; conditions: time course
Text: (§1) FIG. 5 Characterization of recombinant human monoclonal auto-antibodies (rHumaab). IgG were affinity-purified from serum-free supernatants of CHO cells stably transfected with each of the four rHumaab constructs and used (10 micrograms/ml) in four independent assays. Each result is representative of three experiments performed under the same conditions. (a) Vk13B8, Vk16F4 and Vlambda16F4, but not Vlambda13B8 rHumaab, immunoprecipitated PDGFR alpha from normal human fibroblast extracts. A mouse monoclonal anti-PDGFR alpha antibody was used as positive control. Immunoprecipitated PDGFR alpha was visualized by immunoblotting with rabbit anti-PDGFR alpha antibody-HRP. (b-c) Vk16F4 and Vlambda16F4, but not Vk13B8 and Vlambda13B8 rHumaab, induced (b) ROS production and (c) increased ERK phosphorylation (p-ERK) in normal human fibroblasts after 15 minutes incubation. […] Intracellular ROS production was measured by DCFH-DA fluorescence. […] Type I A1 and A2 collagen gene expression was measured by quantitative real-time PCR in RNA extracted from fibroblasts at baseline and after stimulation with the indicated reagents. […] Mouse collagen gene expression was measured by quantitative real-time PCR in RNA extracted from F alpha and F−/− fibroblasts at baseline and after 1 hour stimulation with Vk16F4 rHumaab or human PDGF-BB. […]

[3] = target: T1, PDGFR alpha; test: immunoprecipitation and immunoblotting of PDGFR alpha from human fibroblast extracts; format: binding; design: 100 micrograms of total protein from human fibroblast extract; endogenous in cells; host or cells: normal human (skin) fibroblasts, total cell extract; conditions: normal human fibroblast extracts; 10 micrograms/ml
Description: Immunoprecipitating antibodies were individually incubated for 4 hours at 4° C. with an aliquot of 100 micrograms of total protein from human fibroblast extract. The reaction mixture was adjusted to a final volume of 500 microliters with assay buffer (PBS, 1% Nonidet P-40, 0.5% sodium deoxycholate, 1 mM PMSF). Rabbit anti-PDGFR alpha antibody and rabbit IgG (Santa Cruz), IgG purified from EBV-transformed B cell culture supernatants and rHumaab were used at 10 micrograms/ml, total IgG purified from serum of SSc patients and healthy subjects at 200 micrograms/ml. Then, 20 microliters agarose-Protein A/G (Santa Cruz) were added to the antibody-cell extract mixture and incubated overnight under rotation at 4° C. After centrifugation and extensive washing, immunoprecipitates were suspended in 20 microliters of loading buffer (150 mM Tris-HCl, pH 6.8/6% SDS/0.3% bromophenol blue/30% glycerol) and heated to 100° C. for 10 minutes prior to immunoblotting with a commercial rabbit anti-PDGFR alpha antibody (Santa Cruz).
Target sequence in this assay (P16234 24-1089): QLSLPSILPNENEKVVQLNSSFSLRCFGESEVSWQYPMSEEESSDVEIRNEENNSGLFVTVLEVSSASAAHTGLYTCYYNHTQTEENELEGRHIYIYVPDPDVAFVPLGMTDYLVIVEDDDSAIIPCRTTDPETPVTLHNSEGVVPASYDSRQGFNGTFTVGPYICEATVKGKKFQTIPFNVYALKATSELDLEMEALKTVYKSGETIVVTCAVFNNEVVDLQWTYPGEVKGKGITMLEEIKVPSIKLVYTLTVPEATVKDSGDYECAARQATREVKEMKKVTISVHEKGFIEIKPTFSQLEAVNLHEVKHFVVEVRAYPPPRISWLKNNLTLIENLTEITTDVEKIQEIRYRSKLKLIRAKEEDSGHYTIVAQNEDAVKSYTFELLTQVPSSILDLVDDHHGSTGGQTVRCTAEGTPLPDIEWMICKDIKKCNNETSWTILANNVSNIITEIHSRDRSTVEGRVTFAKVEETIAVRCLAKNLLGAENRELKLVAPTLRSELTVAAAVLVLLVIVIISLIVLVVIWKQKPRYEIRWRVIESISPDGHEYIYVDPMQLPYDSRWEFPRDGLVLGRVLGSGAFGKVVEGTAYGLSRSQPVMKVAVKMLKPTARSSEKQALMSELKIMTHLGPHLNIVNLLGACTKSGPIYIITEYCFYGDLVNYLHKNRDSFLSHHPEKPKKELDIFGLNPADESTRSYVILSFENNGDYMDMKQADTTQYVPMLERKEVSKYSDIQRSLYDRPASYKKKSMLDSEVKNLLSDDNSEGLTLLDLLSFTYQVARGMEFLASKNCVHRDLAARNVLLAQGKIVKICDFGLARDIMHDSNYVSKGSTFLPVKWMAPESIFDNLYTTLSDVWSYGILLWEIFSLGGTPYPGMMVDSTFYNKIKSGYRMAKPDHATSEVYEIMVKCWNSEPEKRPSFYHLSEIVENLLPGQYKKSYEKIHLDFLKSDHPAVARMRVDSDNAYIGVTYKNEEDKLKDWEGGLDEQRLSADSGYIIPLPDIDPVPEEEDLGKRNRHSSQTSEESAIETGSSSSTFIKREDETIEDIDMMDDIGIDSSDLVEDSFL

[4] = system: normal human fibroblasts; test: ERK phosphorylation (p-ERK immunoblot) in normal human fibroblasts; format: cell-based; conditions: 10 micrograms/ml, 15 minutes incubation
Text: as §1

[5] = system: normal human fibroblasts; test: ROS production in normal human fibroblasts (DCFH-DA fluorescence); format: cell-based; conditions: 10 micrograms/ml, 15 minutes incubation
Text: as §1

[6] = target: T1, PDGFR alpha; test: competitive binding on optical biosensor; design: cDNA encoding aminoacids 1-834 of human PDGFR alpha; made in house; conditions: immobilized His-tagged PDGFR alpha saturated with molar excess of PDGF-BB
Description: To draw a map of the PDGFR alpha epitopes recognized by the rHumaab, competitive binding experiments were performed on the optical biosensor platform, where the surface of immobilized HIS-tagged PDGFR alpha was saturated with PDGF-BB prior to the addition of each rHumaab.
Binding assays were performed on a IAsys plus biosensor. The carboxylate surface was equilibrated with PBS buffer, and activated by addition of an equimolar mixture of N-hydroxysuccinimide and N-ethyl-N-(dimethylaminopropyl) carbodiimide hydrochloride following the standard procedure (Davies, R J et al. Academic Press: San Diego, 1994).
Next, His-tagged PDGFR alpha (200 micrograms/mL) was incubated over the surface for 20 min, and free carboxylic sites on the sensor surface were deactivated by injection of 1M ethanolamine, pH 8.5. Finally, the surface was re-equilibrated with PBS. rHumaab and PDGF-BB were added at different concentrations, and association kinetics were followed up to equilibrium, whereas dissociation steps and surface regeneration were performed by addition of fresh buffer, each time assessing the baseline recovery prior to any new addition of ligand. Kinetic and equilibrium parameters were derived from global fit of raw data both to mono- and bi-exponential models (Cuccioloni M et al. J Lipid Res 2011; 52 (5): 897-907).
Target sequence in this assay (P16234 24-834): as the sequence (P16234 24-834) above

Row | Molecule | kass (association rate constant) [1] [M⁻¹ s⁻¹] | duration of collagen gene stimulation [2] | immunoprecipitation of PDGFR alpha [3] | kdiss (dissociation rate constant) [1] [s⁻¹] | ERK phosphorylation (p-ERK) [4] | ROS production [5] | binding to PDGFR alpha pre-saturated with PDGF-BB [6]
1 | PDGF-BB: human PDGF-BB, natural binding partner (physiological ligand) of PDGFR alpha [reference compound] | 3e+07 | up to 6 hours |  |  |  |  | 
2 | B1 |  |  | specifically bound | 0.003 | increased | induced | 
3 | B2 |  |  | specifically bound | 0.035 |  |  | bound
